Laboratory results from patent KR20150000795A.

Biological target: c-Met on MKN45 gastric cancer cells / Caki-1 kidney cancer cells (human) (UniProt P08581)
Test: cell-based or functional assay

Sequence of UniProt P08581 (P08581 25-1390): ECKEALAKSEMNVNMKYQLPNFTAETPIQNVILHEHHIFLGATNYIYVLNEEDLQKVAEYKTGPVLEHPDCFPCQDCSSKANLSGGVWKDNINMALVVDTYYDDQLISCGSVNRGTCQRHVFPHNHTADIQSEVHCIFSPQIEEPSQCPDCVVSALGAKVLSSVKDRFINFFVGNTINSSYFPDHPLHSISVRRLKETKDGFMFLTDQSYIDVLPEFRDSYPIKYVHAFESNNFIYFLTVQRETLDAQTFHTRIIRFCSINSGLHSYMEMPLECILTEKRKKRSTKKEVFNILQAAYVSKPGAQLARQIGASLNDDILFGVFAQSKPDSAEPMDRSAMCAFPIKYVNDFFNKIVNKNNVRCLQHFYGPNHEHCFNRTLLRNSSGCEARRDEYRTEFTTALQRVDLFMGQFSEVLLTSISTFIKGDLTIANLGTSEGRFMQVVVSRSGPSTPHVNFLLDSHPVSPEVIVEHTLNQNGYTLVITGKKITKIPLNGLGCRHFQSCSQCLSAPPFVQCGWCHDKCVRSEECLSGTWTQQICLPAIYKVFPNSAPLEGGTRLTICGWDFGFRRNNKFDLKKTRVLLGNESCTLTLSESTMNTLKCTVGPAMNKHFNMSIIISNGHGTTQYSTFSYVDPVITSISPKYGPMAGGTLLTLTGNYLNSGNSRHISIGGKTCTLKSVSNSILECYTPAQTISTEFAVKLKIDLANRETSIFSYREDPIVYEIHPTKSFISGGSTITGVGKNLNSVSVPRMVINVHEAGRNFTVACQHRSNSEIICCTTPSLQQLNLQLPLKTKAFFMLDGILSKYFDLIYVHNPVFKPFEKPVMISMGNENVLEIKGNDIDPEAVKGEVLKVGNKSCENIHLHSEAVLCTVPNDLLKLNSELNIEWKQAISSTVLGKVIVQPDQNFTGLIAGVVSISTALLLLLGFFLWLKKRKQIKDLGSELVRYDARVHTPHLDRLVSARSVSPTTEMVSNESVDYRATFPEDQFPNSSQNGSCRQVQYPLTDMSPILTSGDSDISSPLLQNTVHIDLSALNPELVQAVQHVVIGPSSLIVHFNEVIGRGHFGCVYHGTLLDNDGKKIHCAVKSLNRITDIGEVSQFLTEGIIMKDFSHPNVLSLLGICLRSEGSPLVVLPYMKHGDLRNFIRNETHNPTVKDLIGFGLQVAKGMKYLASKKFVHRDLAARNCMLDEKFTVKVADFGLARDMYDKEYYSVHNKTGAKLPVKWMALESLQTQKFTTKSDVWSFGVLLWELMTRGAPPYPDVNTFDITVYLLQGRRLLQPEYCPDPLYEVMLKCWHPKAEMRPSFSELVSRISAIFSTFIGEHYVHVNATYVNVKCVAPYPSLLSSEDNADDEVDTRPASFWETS

Substance: 5D5 (antibody)
- Akt phosphorylation (Ser473), phospho-AKT1 sandwich ELISA, Caki-1 cells (reference set to 100%): 100%
